In the nanobody polyreactivity screen of Harvey et al. (2022):

Assay: yeast display, Sf9 membrane polyspecificity reagent, FACS + sequencing; frameworks hold sequencing errors
In short: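 Sorting gates, low and high (top ~1%), were placed on anti-HA fluorescence to track expression and on streptavidin fluorescence to track reagent binding. A clone's polyreactivity label is taken from the gate it came out of. The reagent was 10% biotinylated, detergent-solubilized Sf9 membrane, applied for 1 hour at 4 °C to galactose-induced yeast display cells.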

Row | Sequence | polyreactivity (PSR sort gate)
1 | QVQLVESGGGLVQAGGSLRLSCAASGSTFGPYAMGWYRQAPGKERELVAAITKSGGRTYYADSVKGRFTISRDNAKNTVYLQMNSLKPEDTAVYYCAAYGSVGLEYWGQGTQVTVSS | high polyreactivity
2 | QVQLVESGGGLVQAGGSLRLSCAASGSTFGPYAMGWYRQAPGKERELVAAITSSGGTTYYADSVKGRFTISRDNAKNTVYLQMNSLKPEDTAVYYCNTRRHGWKGVAYDYWGQGTQVTVSS | low polyreactivity
3 | QVQLVESGGGLVQAGGSLRLSCAASGSTFGPYAMGWYRQAPGKERELVATITRNGGSTYYADSVKGRFTISRDNAKNTVYLQMNILKPEDTAVYYCNAEGRWSSFTQRMDYWGQGTQVTVSS | low polyreactivity
4 | QVQLVESGGGLVQAGGSLRLSCAASGSTFGPYTMGWYRQAAGKERELVAAITGGGDSTYYADSVKGRFTISRDNAKNTVYLQMNSLKPEDTAVYYCAAKKPTTRMGYWGQGTQVTVSS | low polyreactivity
5 | QVQLVESGGGLVQAGGSLRLSCAASGSTFGQYAMGWYRQAPGKERELVAAISTSGGSTYYADSVKGRFTISRDNAKNTVYLQMNSLKPEDTAVYYCAVDRLPSYPTGFDYWGQGTQVTVSS | high polyreactivity
6 | QVQLVESGGGLVQAGGSLRLSCAASGSTFGRKAMAWYRQAPGKEMELVAVISKSGGSTYYADTVKGRFTISRDNAKNTVYLQMNSLKPEDTAVYYCAASLKYRRRMGYWGQGTQVTVSS | high polyreactivity
7 | QVQLVESGGGLVQAGGSLRLSCAASGSTFGRNAMGWYRQAPGKERELVAAISKTGGSTYYADSVKGRFTISRDTAKNTVYLQMNSLKPEDTAVYYCAARIRGFRTYYYWGQGTQVTVSS | high polyreactivity
8 | QVQLVESGGGLVQAGGSLRLSCAASGSTFGRYAMGWSRQAPGKEWELVAAISGRGGSTYYADSVKGRFTISRDNAKNTVYLQMNSLKPEDTAVYYCAVRYYSARYWYGYDYWGQGTQVTVSS | high polyreactivity
9 | QVQLVESGGGLVQAGGSLRLSCAASGSTFGRYAMGWYRQAPGKARELVAAITTSGGRTRYADSVKGRFTISRDNAKNTVYLQMNSLKPEDTAVYYCAASGAQGPDYDYWGQGTQVTVSS | low polyreactivity
10 | QVQLVESGGGLVQAGGSLRLSCAASGSTFGRYAMGWYRQAPGKERELVAAISARGGSTYYADSVKGRFTISRDNAKNTVYLQMNSLKPEDTAVYYCNVDYLLHGGRFDYWGQGTQVTVSS | high polyreactivity
11 | QVQLVESGGGLVQAGGSLRLSCAASGSTFGRYAMGWYRQAPGKEREMVAAISQRGGSTYYADSVKGRFTISRDYAKNTVYLQMNSLKPEDTAVYYCAAYYTRIRNHYGYWGQGTQVTVSS | high polyreactivity
12 | QVQLVESGGGLVQAGGSLRLSCAASGSTFGSNAMGWYRQAPGKERELVAAIRWSGGSTYYADSVKGRFTISRDNAKNTVYLQMNSLKPEDTAVYYCAGSFFQYNRRFNYWVQGTQVTVSS | high polyreactivity
13 | QVQLVESGGGLVQAGGSLRLSCAASGSTFGSNAMGWYRQAPGKERELVAAIRWSGGSTYYADSVKGRFTISRDNAKNTVYLQMNSLKPEDTAVYYFAGYYFQYNRRFNYWGQGTQVTVSS | high polyreactivity
14 | QVQLVESGGGLVQAGGSLRLSCAASGSTFGSNDMGWYRPAPGKERELVAGITWSGGSTFYADSVKGRFTISRDTAKNTVYLQMNSLKPEDTAVYYCAVSTEVNRYHAKYDYWGQGTQVTVSS | low polyreactivity
15 | QVQLVESGGGLVQAGGSLRLSCAASGSTFGSYAMGWYRQAPGKERELVAAISRGGGSTYYADSVKGRFTISRDNAKNTVYLQMKSLKPEDTAVYYCAASFSRYGLVLYSIEDYWGQGTQVTVSS | high polyreactivity
16 | QVQLVESGGGLVQAGGSLRLSCAASGSTFGSYAMGWYRQAPGKERELVASISLSDGSTYADSVKGRFTISRDNAKNTVYLQMNSLKQEDTAVYYCNVDWFSHDSDYYSFAYDYWGQGTQVTVSS | high polyreactivity
17 | QVQLVESGGGLVQAGGSLRLSCAASGSTFGSYVMGWYRQAPGKERELVAAISQRGTSTYYADSVKGRFTISRDNAKNTVYLQMNSLKPEDTAVYYCNALYWQIGDDYWGQGTQVTVSS | high polyreactivity
18 | QVQLVESGGGLVQAGGSLRLSCAASGSTFGTNAMGWYRQAPGKEREFVAAISRRGGRTYYADSVKGRFTISRDNAKNTVYLQMNSLKPEDTAVYYCNAVSTGQGLYDYWGQGTQVTVSS | high polyreactivity
19 | QVQLVESGGGLVQAGGSLRLSCAASGSTFGTNAMGWYRQAPGKERELVAAISVSSTYYADSVKGRFTISRDNAKNTVYLQMNSLKPEDTAVYYCAADNSYGYRLDYWGQGTQVTVSS | low polyreactivity
20 | QVQLVESGGGLVQAGGSLRLSCAASGSTFGTNAMGWYRQAPGKERELVARINSSASTTYADSVKGRFTISRDNAKNTVYLQMNSLKPEDTAVYYCNADDRHSRVGHSWQDAQFDYWVQGTQVTVSS | high polyreactivity
21 | QVQLVESGGGLVQAGGSLRLSCAASGSTFGTYAMGWYRQAPGKEREFVAVIRWSGGSTYYADSVKGRFTISRDNAKNTVYLQMNSLKPEDTAVYYCNADTRVKYVGWMYYWGQGTQVTVSS | high polyreactivity
22 | QVQLVESGGGLVQAGGSLRLSCAASGSTFGTYAMGWYRQAPGKERELVAAINTSGGSTTYADSVKGRFTISRDNAKNTVYLQMNSLKPEDTAVYYCAKDTTGDAYSEYDYWGQGTQVTVSS | low polyreactivity

Row | Sequence | polyreactivity (PSR sort gate)
23 | QVQLVESGGGLVQAGGSLRLSCAASGSTFGVNAMGWYRQAPGKERELVAAIRSAVPTYYADSVKGRFTISRDNAMNTVYLQMNSLKPEETAVYYCAARHRESQRRYDYWGQGTQVTVSS | high polyreactivity
24 | QVQLVESGGGLVQAGGSLRLSCAASGSTFGVNARGWYRQAPGKERELVAGITWTGGSSYYADSVKGRFTISRDNAKNTVYLQMNSLKPEDTAVYYCAKDWYSSYYDDSEDSWGQGTQVTVSS | low polyreactivity
25 | QVQLVESGGGLVQAGGSLRLSCAASGSTFGVSAMGWSRQAPGKERELVAAISGRGGRTYYADSVKGRFTISRDNAKNTVYLLMNSLKPEDTAVYYFAVVGSAYQSRYDYWGQGTQVTVSS | high polyreactivity
26 | QVQLVESGGGLVQAGGSLRLSCAASGSTFGVYAMGRYRQAPGKERELVAAISYGDSTNYADSVKGRFTISRDNAKNTVYLQMNSLIPEDTAVYYCNALELYAAYPEYYLYYWYDYWGQGTQVNVSS | high polyreactivity
27 | QVQLVESGGGLVQAGGSLRLSCAASGSTFGWNTMGWYRQAPGKERELVAAISWSGDRTYYADSVKGRFTISRDNAKNTVYLQMNSLKPDDTAVYYCARQRYYGYYYWGQGTQVTVSS | high polyreactivity
28 | QVQLVESGGGLVQAGGSLRLSCAASGSTFGWYAMGWDRQAPGKERELVAAIRNNDGRTYYADSVKGRFTISRDNAKNTVYLQMNSLKPEDTAVDYCNKRLDTVGWYHGYNYWGQGTQVTVSS | low polyreactivity
29 | QVQLVESGGGLVQAGGSLRLSCAASGSTFGWYAMGWFRQAPGKERELVAAITSGGSTKYADSVKGRFTISRDNAKNTVYLQMNSLKPEDTAVYYCATVRGYYSPVQVIGYFWGQGTQVTVSS | high polyreactivity
30 | QVQLVESGGGLVQAGGSLRLSCAASGSTFGWYAMGWYRQAPGKERELVAAISTSGNTYYADSVKGRFTISRDNAKNTVYLQMNSLKPEDTAVYYCAKYVNPDHDYWGQGTQVTVSS | low polyreactivity
31 | QVQLVESGGGLVQAGGSLRLSCAASGSTFGWYAMGWYRQAPGKERELVASISRSGGRTFYADSVKGRFTISRDNAKNTVYLQMNRLKPEDTAVYYCAADALIYYKGSPDYYWGQGTQVNVSS | high polyreactivity
32 | QVQLVESGGGLVQAGGSLRLSCAASGSTFGWYAMGWYRQAPGKERELVATISTTGGRTYYADSVKGRFTISRDNAKNTVYLQMNSLKPEDTAVYYCAARAFYKRYFAFDYWGQGTQVTVSS | high polyreactivity
33 | QVQLVESGGGLVQAGGSLRLSCAASGSTFGWYAMGWYRQAPGKETELDAAISWSGGSTYYADSVKGRFTISRDNAKNTVYLQMNSLKPEDTAVYYCARDTQYPYYFLMDYWGQGTQVTVSS | low polyreactivity
34 | QVQLVESGGGLVQAGGSLRLSCAASGSTFGWYTMAWYRQAPGKERELVAAITSRGTRTSYADSVKGRFTISRDNAKNTVYLQMNSLKPEETAVYYCAARVFRGLGEYYWGQGTQVTVSS | high polyreactivity
35 | QVQLVESGGGLVQAGGSLRLSCAASGSTFGWYTMGWYRQAPGKERELVAAINYSGGSTYYADSVKGRFTISRDNAKNTVYLQMISLKPEDTAVYYCAADGTWSIYGGLYYWGQGTQVTVSS | low polyreactivity
36 | QVQLVESGGGLVQAGGSLRLSCAASGSTFGYNAMGWSRPAPGKERELVAAITWSGGSTYYADSVKGRFTISRDNAKNTVYLQMNSLKPEDTAVYYCAADDWYNSKWHYYYWGQGTQVTVSS | low polyreactivity
37 | QVQLVESGGGLVQAGGSLRLSCAASGSTFGYNAMGWYRQAPGKERELVAAIRRSGGSTYYADSVKGRFTISRDNAKNTVYLQMNSLKPEDTAVYYCAAAGGKRHEYWGQGTQVTVSS | high polyreactivity
38 | QVQLVESGGGLVQAGGSLRLSCAASGSTFGYNAMGWYRQAPGKERELVAAISYSGGSTSYADSVKGRFTISRDNAKNTVYLQMNSLKPEDTAVYYCAADEGTGQASLSSNLYDYWGQGTQVTVSS | low polyreactivity
39 | QVQLVESGGGLVQAGGSLRLSCAASGSTFGYNAMGWYRQAPGKERELVAAITWSGGSTYYADSVKGRFTISRDNAKNTVYLQMNSLKPEDTAVYYCAADDWYNSTWHYYYWGQGTQVTVSS | low polyreactivity
40 | QVQLVESGGGLVQAGGSLRLSCAASGSTFGYNAMGWYRQAPGKERELVAAITWTGASTYYADSVKGRFTISRDIAKNTVYLQMNSLKPEDTAVYYCNRVGYQSMNYWGQGTQVTVSS | low polyreactivity
41 | QVQLVESGGGLVQAGGSLRLSCAASGSTFGYNGLGWYRQAPGKERELVAAISGGARTYADSVKGRFTISRDNAKNTVYLQMNSLKPEDTSVYYCAADSPVSVTADDGYWGQGTQVTVSS | low polyreactivity
42 | QVQLVESGGGLVQAGGSLRLSCAASGSTFGYNGMGWYRQAPGKERELVAAISGGARTYADSVKGRFTISRDNAKNTVYLQMNSLKPEDTAVYYCAADSPVSVTADDGYWGQGTEVTVSS | low polyreactivity
43 | QVQLVESGGGLVQAGGSLRLSCAASGSTFGYNGMGWYRQGPGKERELVAAISGGARTYADSVKGRFTISRDNAKNTVYLQMNSLKPEDTAVYYCAADSPVSVTADDGYWGQGTQLTVSS | low polyreactivity
